{"source": "patent US6794178", "proteins": {"B1": {"name": "Bacterially expressed and purified KinI-3 protein (protein)", "chain": "DCDIPIIQRISHVSGYNYGIPHSCIRQNTSEKQNPWTEMEKIRVCVRKRPLGMREVRRGEINIITVEDKETLLVHEKKEAVDLTQYILQHVFYFDEVFGEACTNQDVYMKTTHPLIQHIFNGGNATCFAYGQTGAGKTYTMIGTHENPGLYALAAKDIFRQLEVSQPRKHLFVWISFYEIYCGQLYDLLNRRKRLFAREDSKHMVQIVGLQELQVDSVELLLEVILKGSKERSTGATGVNADSSRSHAVIQIQIKDSAKRTFGRISFIDLAGSERAADARDSDRQTKMEGAEINQSLLALKECIRALDQEHTHTPFRQSKLTQVLKDSFIGNAKTCMIANISPSHVATEHTLNTLRYADRVKEL"}}, "biological_target": "microtubules", "data": [{"protein": "B1", "values": [{"measurement": "microtubule depolymerization (tubulin in supernatant after centrifugation, SDS-PAGE), AL + ATP/MT", "result": "Track 3 shows an increase in tubulin in the supernatant that indicates depolymerization in the presence of ATP"}, {"measurement": "microtubule depolymerization (tubulin in supernatant), AL + MT + ADP", "result": "No depolymerization was observed ... in the presence of ADP (track 6)"}, {"measurement": "microtubule depolymerization (tubulin in supernatant), AL + MT/AMPPNP", "result": "No depolymerization was observed ... in the presence of AMP-PNP (track 5)"}, {"measurement": "microtubule depolymerization (tubulin in supernatant), AL treated by Apyrase + MT", "result": "No depolymerization was observed in the absence of ATP (track 4)"}]}]}
